{"source": "paper PMC6077200", "binders": {"B1": {"name": "purified human endogenous C-reactive protein (natural protein)", "chain": "QTDMSRKAFVFPKESDTSYVSLKAPLTKPLKAFTVCLHFYTELSSTRGYSIFSYATKRQDNEILIFWSKDIGYSFTVGGSEILFEVPEVTVAPVHICTSWESASGIVEFWVDGKPRVRKSLKKGYTVGAEASIILGQEQDSFGGNFEGSQSLVGDIGNVNMWDFVLSPDEINTIYLGGPFSPNVLNWRALKYEVQGEVFTKPQLWP"}}, "molecular_target": "nicotinic acetylcholine receptors containing subunits α7, α9 and α10 of monocytic U937 cells (human (endogenous in U937)) (UniProt P36544)"}
{"binder": "B1", "values": [{"measurement": "IC50 of eCRP for inhibition of BzATP-induced (100 µM) IL-1β release from LPS-primed U937 cells (the paper says this corresponds to about 40 nM pentameric CRP)", "value": 4.9, "unit": "µg/mL"}]}
